Measured values published in patent publication US10781452B2, “FLT3 receptor antagonists for the treatment or the prevention of pain disorders” (INSTITUT NATIONAL DE LA SANTE ET DE LA RECHERCHE MEDICALE …, priority 2010, dated 2020).

B1: FL: cytokine which is a natural ligand of the FLT3 receptor (protein, UniProt P49771 27-235, looked up)
Fms-related tyrosine kinase 3 …: TQDCSFQHSPISSDFAVKIRELSDYLLQDYPVTVASNLQDEELCGGLWRLVLAQRWMERLKTVAGSKMQGLLERVNTEIHFVTKCAFQPPPSCLRFVQTNISRLLQETSEQLVALKPWITRQNFSRCLELQCQPDSSTLPPPWSPRPLEATAPTAPQPPLLLLLLLPVGLLLLAAAWCLHWQRTRRRTPRPGEQVPPVPSPQDLLLVEH

Assays:
TRPV1 = biological target: T1, TRPV1 (Mus musculus, UniProt Q704Y3); assay: FL-induced mechanical hyperalgesia with intraplantar TRPV1 inhibitor; format: in vivo, mice; conditions: intraplantar 10 μl at 30 μg/ml, one hour before FL injection; 12 h
T1 construct: from tissue; host or cells: living mice, hindpaw
Procedure: (§1) Mechanical withdrawal thresholds: The sensitivity to punctuate mechanical stimuli was assessed using the dynamic plantar aesthesiometer (Bioseb, France). Each mouse was placed in a Plexiglass chamber. Sixty minutes later, a mechanical stimulus (a small-diameter blunt metallic filament) was applied to the plantar surface with an increasing force and the paw withdrawal latencies were measured. For each point, mice were tested three times and the responses for each paw were averaged.
To investigate the potential role(s) of FL in modulating noxious sensitivity through the activation of TRPV1 receptor in vivo, we tested the effect of the TRPV1 inhibitor sb-366791 on the FL-induced mechanical hyperalgesia.

mice hindpaws [1] = assay: Thermo-nociceptive testing (radiant heat paw withdrawal) after hindpaw injection of FL or NGF; format: in vivo; conditions: for paw withdrawal latency drop (radiant heat stimulus), thermal hyperalgesia: 12 H after hindpaw injection of 100 ng/10 μl, vs vehicle-injected hindpaws
Procedure: (§2) Animals: Adult Swiss mice (8-10 week old) (CERJ, Le Genest St Isle, France) were used according to the guidelines of the International Association for the Study of Pain. Mice were housed in cages with a 12/12 hr light/dark cycle and fed food and water ad libitum.
(§3) Behavioral experiments: Behavioral responsiveness of the mice was tested following one week of habituation to the testing environment and the observer.
Thermo-nociceptive testing: Nociceptive threshold to acute thermal stimulation was measured using the paw retrieval test (Bioseb, France). Focused light from 12.5 W projection bulb was applied to the middle of the plantar surface of the hind paw (3 mm diameter). The projection bulb was turned off as soon as the mouse removed its paw, and a digital timer connected in series measured the paw withdrawal latency to an accuracy of 0.1 s. We used a cut-off latency of 15 s to avoid the possibility of tissue damage. For each point, mice were tested three times and the responses for each paw were averaged.
FL produces thermal and mechanical hyperalgesia in vivo: To investigate the potential role(s) of FL in modulating noxious heat sensitivity in vivo, we first injected FL (100 ng/10 μl) into mice hindpaws, and latency to ipsilateral paw withdrawal from a radiant heat stimulus was measured. […] At 12 H after injection, FL induced a significant thermal hyperalgesia (latency drop around 30%) compared to control mice hindpaws injected with vehicle (p<0.001) (FIG. 1A). For comparison, NGF (100 ng/10 μ) induced a significant latency drop of 25% at 12 H (FIG. 1A).

mice hindpaws [2] = assay: Mechanical withdrawal (von Frey hair filaments) after hindpaw injection of FL or NGF; format: in vivo
Procedure: as §2, §3, §1
We next tested the role of FL in modulating noxious mechanical sensitivity in vivo. […] For comparison, NGF (100ng/10μ1) induced a foot withdrawal response decrease of 30% at 12 H (P<0.001) (FIG. 1B).

[3] = test system: TRPV1 positive sensory neurons; assay: FL potentiation of capsaicin [Ca2+]i response (Fura-2 imaging) in DRG neurons; format: cell-based, mice
Procedure: DRG neurons primary culture: Primary neuronal cultures were established from lumbar (L4 to L6) dorsal root ganglia (DRG) of adult mice as previously described (Boudes et al, 2009). Ganglia were treated twice with collagenase A (1 mg/ml, Roche Diagnostic, France) for 45 minutes (37° C.) and then with trypsin-EDTA (0.25%, Sigma, St Quentin Fallavier, France) for 30 minutes. They were mechanically dissociated by passing 8 to 10 times through the tip of a fire-polished Pasteur pipette in neurobasal (Life Technologies, Cergy Pontoise, France) culture medium supplemented with 10% foetal bovine serum and DNase (50 U/ml, Sigma, St Quentin Fallavier, France). Isolated cells were collected by centrifugation and suspended in neurobasal culture medium supplemented with 2% B27 (Life Technologies), 2 mM glutamine, penicillin/streptomycin (20 U/ml, 0.2 mg/ml). Dissociated neurons were plated on poly-D,L-ornithine (0.5 mg/ml)-laminin (5 μg/ml)-coated glass coverslips at a density of 2500 neurons per well and were incubated in an incubator with a humidified 95% air/5% CO2 atmosphere. Two hours after plating, the culture medium was carefully removed and replaced to eliminate dead cells and tissue debris. The cells were maintained in culture at 37° C. until experiments were performed. […]
Cells were imaged with a inverted microscope equipped with a NEOFLUAR 25×0.8 objective lens (Axiovert 200, Zeiss, Le Pecq, France) and a CCD camera (Cool SNAP ES, Roper Scientific, France). […] A Fura filter cube with 400 long pass dichroic and D510/40m emission band pass was used to collect fluorescence emissions separately for each wavelength. Images were acquired and analyzed with Metafluor software (Molecular Devices). Changes in intracellular calcium concentrations ([Ca^2+]i ) were monitored as changes of the ratio of the fura-2-fluorescence intensity recorded at 340 nm and 380 nm excitation wavelengths (ΔF340/380). […]
Each neuron was stimulated three times by capsaicin at 4-5 min interval. […] Response areas were calculated as a measure of total Ca^2+ influx. […]

[4] = 12H after hindpaw injection of 100 ng/10 μl
[5] = all capsaicin responders, potentiated and unaffected

T1 sequence (Q704Y3 whole entry): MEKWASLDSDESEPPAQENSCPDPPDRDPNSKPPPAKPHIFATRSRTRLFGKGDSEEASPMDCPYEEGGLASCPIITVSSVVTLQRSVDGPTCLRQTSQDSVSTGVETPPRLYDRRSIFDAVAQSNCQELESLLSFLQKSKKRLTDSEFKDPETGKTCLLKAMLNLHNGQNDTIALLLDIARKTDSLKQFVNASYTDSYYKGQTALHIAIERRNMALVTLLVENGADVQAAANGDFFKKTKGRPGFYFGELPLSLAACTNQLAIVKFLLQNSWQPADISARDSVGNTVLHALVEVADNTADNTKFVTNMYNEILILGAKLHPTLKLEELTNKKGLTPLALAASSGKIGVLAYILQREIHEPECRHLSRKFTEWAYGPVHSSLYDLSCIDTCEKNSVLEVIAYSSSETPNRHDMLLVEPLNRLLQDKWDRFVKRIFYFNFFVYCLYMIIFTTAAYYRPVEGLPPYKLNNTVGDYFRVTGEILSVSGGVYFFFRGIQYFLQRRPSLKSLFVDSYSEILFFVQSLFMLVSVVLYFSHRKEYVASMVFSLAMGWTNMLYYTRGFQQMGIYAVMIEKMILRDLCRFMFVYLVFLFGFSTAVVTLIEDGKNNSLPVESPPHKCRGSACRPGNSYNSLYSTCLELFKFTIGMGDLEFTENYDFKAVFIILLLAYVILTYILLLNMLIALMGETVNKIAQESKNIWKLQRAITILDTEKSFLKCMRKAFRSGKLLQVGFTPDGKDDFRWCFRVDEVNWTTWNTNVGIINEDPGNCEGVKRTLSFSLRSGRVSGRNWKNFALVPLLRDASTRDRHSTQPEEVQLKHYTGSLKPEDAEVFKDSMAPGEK

Molecule | foot withdrawal response to von Frey hair filaments after FL injection, vs control mice (TRPV1) | paw withdrawal latency drop (radiant heat stimulus), thermal hyperalgesia (mice hindpaws [1]) | foot withdrawal response decrease (mice hindpaws [2]; [4]) [%] | onset of heat hyperalgesia (mice hindpaws [1]; hindpaw injection 100 ng/10 μl) | return of heat hyperalgesia to control values (mice hindpaws [1]; hindpaw injection 100 ng/10 μl) [days] | foot withdrawal response to von Frey hair filaments reduced to, compared to control (mice hindpaws [2]; [4]) [%] | onset of mechanical hyperalgesia (mice hindpaws [2]; hindpaw injection 100 ng/10 μl) | return of mechanical hyperalgesia to control values (mice hindpaws [2]; hindpaw injection 100 ng/10 μl) [days] | cells that respond to capsaicin showing potentiation of the capsaicin response ([3]; FL at 10 and 100 ng/ml, adult DRG neurons) [%] | mean fold increase in TRPV1 response, ΔFarea [3, 5] | mean fold increase in TRPV1 response, ΔFpeak [3, 5] [%]
COc1cccc(NC(=O)/C=C/c2ccc(Cl)cc2)c1 [sb-366791] | did not show any change in the foot withdrawal response |  |  |  |  |  |  |  |  |  | 
NGF: nerve growth factor, used as positive control |  | 25% | 30 |  |  |  |  |  |  |  | 
B1 |  | around 30% |  | within one/two hours | 6 | 50 | within one/two hours | 6 | 56 | ≈ 512% | 212
